Publication PMC9522604
Read-outs that look alike come from different tables or passages of the source.

What was measured:
Cas12c2 [1] = biological target: T1, Cas12c2 (UniProt PDB:7V94_1 1-1232); assay: cryo-EM
T1 sequence: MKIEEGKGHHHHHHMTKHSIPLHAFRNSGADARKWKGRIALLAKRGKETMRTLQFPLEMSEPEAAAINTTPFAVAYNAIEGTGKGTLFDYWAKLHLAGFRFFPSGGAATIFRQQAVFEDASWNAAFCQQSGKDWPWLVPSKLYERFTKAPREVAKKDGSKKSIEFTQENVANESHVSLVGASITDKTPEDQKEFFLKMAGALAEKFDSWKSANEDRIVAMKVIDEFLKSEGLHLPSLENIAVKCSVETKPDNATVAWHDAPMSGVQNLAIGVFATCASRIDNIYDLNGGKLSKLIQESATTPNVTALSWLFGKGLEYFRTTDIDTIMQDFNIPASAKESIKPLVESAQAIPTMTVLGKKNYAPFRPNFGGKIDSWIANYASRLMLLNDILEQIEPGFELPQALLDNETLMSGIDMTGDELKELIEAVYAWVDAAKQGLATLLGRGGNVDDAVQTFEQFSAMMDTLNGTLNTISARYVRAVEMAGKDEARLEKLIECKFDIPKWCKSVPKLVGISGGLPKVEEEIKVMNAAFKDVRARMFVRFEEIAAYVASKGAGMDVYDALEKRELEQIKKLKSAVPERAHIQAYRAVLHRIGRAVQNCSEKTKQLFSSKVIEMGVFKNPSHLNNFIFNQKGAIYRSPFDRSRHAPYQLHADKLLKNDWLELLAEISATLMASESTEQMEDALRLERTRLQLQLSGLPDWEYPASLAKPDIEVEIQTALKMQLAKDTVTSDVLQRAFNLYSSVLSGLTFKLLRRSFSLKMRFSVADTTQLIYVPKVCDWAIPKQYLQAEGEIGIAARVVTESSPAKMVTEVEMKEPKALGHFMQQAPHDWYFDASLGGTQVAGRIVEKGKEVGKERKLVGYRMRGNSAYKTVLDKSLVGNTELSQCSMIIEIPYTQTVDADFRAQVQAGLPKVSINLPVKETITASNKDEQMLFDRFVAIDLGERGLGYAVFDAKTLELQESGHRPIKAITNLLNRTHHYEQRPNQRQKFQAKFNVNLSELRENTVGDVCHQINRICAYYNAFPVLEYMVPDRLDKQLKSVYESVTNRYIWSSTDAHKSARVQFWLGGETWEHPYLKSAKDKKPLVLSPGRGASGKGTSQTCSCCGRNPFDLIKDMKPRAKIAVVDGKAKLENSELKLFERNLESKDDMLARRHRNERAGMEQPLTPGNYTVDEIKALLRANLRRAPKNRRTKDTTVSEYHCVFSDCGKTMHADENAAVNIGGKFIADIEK

Cas12c2 [2] = biological target: T1, Cas12c2; assay: cryo-EM; remark: listed apart in the source

B1: Cas12c2 sgRNA (112 nt) (structured_RNA)
RNA: GGAUACCACCCGUGCAUUUCUGGAUCAAUGAUCCGUACCUCAAUGUCCGGGCGCGCAGCUAGAGCGACCUGAAGAAAUUCAGGUUGGGUUUGAGGGGAAAUUAGGUGCGCUU
Cas12c2 [1]
  binding result: binds

B2: sgRNA + 33-bp target DNA, TG PAM (guide/target strand/non-target strand) (mixed)
RNA: GGAUACCACCCGUGCAUUUCUGGAUCAAUGAUCCGUACCUCAAUGUCCGGGCGCGCAGCUAGAGCGACCUGAAGAAAUUCAGGUUGGGUUUGAGGGGAAAUUAGGUGCGCUU
DNA 1: AGGTTGCCAAGCGCACCTAATTTCCCATTTTAG
DNA 2: CTAAAATGGGAAATTAGGTGCGCTTGGCAACCT
Cas12c2 [2]
  binding result: binds
